# B1: Enho 1: human Enho 1, a 76 amino acid peptide having the sequence SEQ ID NO: 14 (peptide, listed as Homo sapiens)
# chain: MGAAISQGALIAIVCNGLVGFLLLLLWVILCWACHSRSADVDSLSESSPNSSPGPCPEKAPPPQKPSHEGSYLLQP
# Tested on: DIO C57BL/6J mice
# Assay: Enho 1 ip for 7 days in DIO C57BL/6J mice (Examples 23-25)
# Assay type: in vivo, mouse
# Protocol: (§1) The effect of Enho-1 upon weight loss was tested over the course of 7 days using DIO C57BL/6J mice (Charles River Laboratories). The mice were fed a high fat diet (Research Diets 12492) for 10 weeks prior to the start of the experiment, which was begun when the mice were 15-16 weeks of age. Control mice received vehicle only while test mice each received doses of either 90 nmol/kg/d, 900 nmol/kg/d or 9000 nmol/kg/d. The injections were given as 3 ip injections at 0800, 1200 and 1600 h for 7 days. On day 8, the mice were given the 0800 h injection and were sacrificed 1-3 h later.
# as §1, with “insulin and glucose” for “weight loss”, “later at which time blood samples were collected and levels of insulin and glucose determined.” for “later.”
# The HOMA-IR for each treatment was calculated using the following formula: ((glucose mg/dL÷18)×(insulin ng/ml×25.05))÷22.5
# as §1, with “levels of blood lipids” for “weight loss”, “later at which time blood samples were collected and levels of trigylcerides determined. Triglycerides were measured using a Triglyceride L-Type TG H kit (Wako Diagnostics).” for “later.”
# [1] = 90 nmol/kg/d ip, listed as Enho-1
# [2] = 900 nmol/kg/d ip, listed as Enho-1
# [3] = 9000 nmol/kg/d ip, listed as Enho-1
molecule,measurement,setting,value
B1,Blood glucose,90 nmol/kg/d ip,182 mg/dL
same,Delta body weight,90 nmol/kg/d ip,6.6%
same,HOMA-IR,90 nmol/kg/d ip,15
same,HOMA-IR decrease as compared to the control group,90 nmol/kg/d ip,15%
same,Insulin,90 nmol/kg/d ip,1.3 ng/mL
same,TG (blood triglyceride level),90 nmol/kg/d ip,22.5 mg/dL
same,Weight (pre-treatment),90 nmol/kg/d ip,36.5 g
same,Weight (termination),90 nmol/kg/d ip,34.0 g
same,Blood glucose,[1],182 ± 17 mg/dL
same,HOMA-IR,[1],15 ± 2
same,HOMA-IR decrease as compared to the control group,[1],(↓ 32%)
same,Insulin,[1],1.3 ± 0.1 ng/mL
same,TG (blood triglyceride level),[1],22.5 ± 6.0 mg/dL
same,Weight (pre-treatment),[1],36.5 ± 1.3 g
same,Weight (termination),[1],34.0 ± 1.0 g
same,Blood glucose,900 nmol/kg/d ip,212 mg/dL
same,Delta body weight,900 nmol/kg/d ip,7.1%
same,HOMA-IR,900 nmol/kg/d ip,29
same,HOMA-IR decrease as compared to the control group,900 nmol/kg/d ip,29%
same,Insulin,900 nmol/kg/d ip,2.2 ng/mL
same,TG (blood triglyceride level),900 nmol/kg/d ip,38.0 mg/dL
same,Weight (pre-treatment),900 nmol/kg/d ip,37.9 g
same,Weight (termination),900 nmol/kg/d ip,36.0 g
same,Blood glucose,[2],212 ± 11 mg/dL
same,HOMA-IR,[2],29 ± 4
same,Insulin,[2],2.2 ± 0.3 ng/mL
same,TG (blood triglyceride level),[2],38.0 ± 12.5 mg/dL
same,Weight (pre-treatment),[2],37.9 ± 1.4 g
same,Weight (termination),[2],36.0 ± 1.2 g
same,Blood glucose,9000 nmol/kg/d ip,190 mg/dL
same,Delta body weight,9000 nmol/kg/d ip,6.7%
same,HOMA-IR,9000 nmol/kg/d ip,16
same,HOMA-IR decrease as compared to the control group,9000 nmol/kg/d ip,27%
same,Insulin,9000 nmol/kg/d ip,1.3 ng/mL
same,TG (blood triglyceride level),9000 nmol/kg/d ip,18.5 mg/dL
same,TG decrease from the control,9000 nmol/kg/d ip,19%
same,Weight (pre-treatment),9000 nmol/kg/d ip,33.8 g
same,Weight (termination),9000 nmol/kg/d ip,31.6 g
same,Blood glucose,[3],190 ± 16 mg/dL
same,HOMA-IR,[3],16 ± 4
same,HOMA-IR decrease as compared to the control group,[3],(↓ 27%)
same,Insulin,[3],1.3 ± 0.2 ng/mL
same,TG (blood triglyceride level),[3],18.5 ± 1.7 mg/dL
same,TG decrease from the control,[3],(↓ 19%)
same,Weight (pre-treatment),[3],33.8 ± 0.8 g
same,Weight (termination),[3],31.6 ± 0.7 g

# Reference: patent US8518892B2, “Methods to treat symptoms of pathophysiology related to body mass” (Board of Supervisors of Louisiana State University and …, priority 2005, dated 2013)
